Measured values published in paper PMC11381518, “Human cell surface-AAV interactomes identify LRP6 as blood-brain barrier transcytosis receptor and immune cytokine IL3 as AAV9 binder” (Nature Communications, 2024).

T1: human LRP6 (AA 20-1368) tagged with human IgG1 Fc (human, UniProt O75581 20-1368)
T1 construct: human LRP6, AA 20-1368; the methods call it full-length, the results the extracellular domain; also called human LRP6-Fc; human LRP6 extracellular domain; source: bought: Bio-Techne
T1 sequence (looked up): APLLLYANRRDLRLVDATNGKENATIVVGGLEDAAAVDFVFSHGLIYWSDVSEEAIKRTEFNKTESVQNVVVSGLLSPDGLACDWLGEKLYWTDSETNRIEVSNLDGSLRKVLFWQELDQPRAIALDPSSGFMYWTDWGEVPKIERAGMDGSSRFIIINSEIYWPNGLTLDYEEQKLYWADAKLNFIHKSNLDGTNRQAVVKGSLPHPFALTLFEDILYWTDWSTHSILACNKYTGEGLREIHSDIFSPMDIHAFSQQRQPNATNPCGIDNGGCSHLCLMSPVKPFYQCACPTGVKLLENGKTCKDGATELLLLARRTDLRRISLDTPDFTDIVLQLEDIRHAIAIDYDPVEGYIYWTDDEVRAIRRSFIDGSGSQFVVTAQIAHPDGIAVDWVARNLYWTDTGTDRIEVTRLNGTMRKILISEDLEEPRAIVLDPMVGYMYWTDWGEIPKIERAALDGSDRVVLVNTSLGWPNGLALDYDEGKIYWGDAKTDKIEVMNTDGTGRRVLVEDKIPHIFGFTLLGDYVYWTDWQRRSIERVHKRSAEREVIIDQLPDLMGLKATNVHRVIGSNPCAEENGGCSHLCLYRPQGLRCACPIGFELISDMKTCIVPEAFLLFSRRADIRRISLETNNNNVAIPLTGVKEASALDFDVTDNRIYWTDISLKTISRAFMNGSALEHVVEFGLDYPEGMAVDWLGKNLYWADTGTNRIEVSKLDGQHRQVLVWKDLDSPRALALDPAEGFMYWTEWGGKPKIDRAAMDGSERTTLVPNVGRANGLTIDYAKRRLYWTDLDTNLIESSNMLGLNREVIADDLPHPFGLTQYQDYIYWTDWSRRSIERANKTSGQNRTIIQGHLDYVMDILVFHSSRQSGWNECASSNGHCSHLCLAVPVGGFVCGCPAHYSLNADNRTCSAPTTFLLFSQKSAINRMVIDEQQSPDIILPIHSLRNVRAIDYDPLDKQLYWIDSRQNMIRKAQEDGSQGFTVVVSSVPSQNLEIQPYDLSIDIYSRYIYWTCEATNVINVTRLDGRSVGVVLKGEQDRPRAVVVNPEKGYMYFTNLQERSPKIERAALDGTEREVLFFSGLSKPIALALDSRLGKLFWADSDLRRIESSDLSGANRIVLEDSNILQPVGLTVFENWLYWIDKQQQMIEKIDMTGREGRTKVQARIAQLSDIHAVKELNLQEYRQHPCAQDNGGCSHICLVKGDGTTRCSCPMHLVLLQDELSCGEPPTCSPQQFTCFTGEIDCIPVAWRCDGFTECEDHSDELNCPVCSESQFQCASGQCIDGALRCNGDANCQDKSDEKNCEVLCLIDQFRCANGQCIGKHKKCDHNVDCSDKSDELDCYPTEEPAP

T2: mouse LRP6 (AA 20-1366) with a 6xHis tag (mouse, UniProt O88572 20-1366)
T2 construct: mouse LRP6 extracellular domain, AA 20-1366; also called full length extracellular domain of mouse LRP6; source: bought: Bio-Techne
T2 sequence (looked up): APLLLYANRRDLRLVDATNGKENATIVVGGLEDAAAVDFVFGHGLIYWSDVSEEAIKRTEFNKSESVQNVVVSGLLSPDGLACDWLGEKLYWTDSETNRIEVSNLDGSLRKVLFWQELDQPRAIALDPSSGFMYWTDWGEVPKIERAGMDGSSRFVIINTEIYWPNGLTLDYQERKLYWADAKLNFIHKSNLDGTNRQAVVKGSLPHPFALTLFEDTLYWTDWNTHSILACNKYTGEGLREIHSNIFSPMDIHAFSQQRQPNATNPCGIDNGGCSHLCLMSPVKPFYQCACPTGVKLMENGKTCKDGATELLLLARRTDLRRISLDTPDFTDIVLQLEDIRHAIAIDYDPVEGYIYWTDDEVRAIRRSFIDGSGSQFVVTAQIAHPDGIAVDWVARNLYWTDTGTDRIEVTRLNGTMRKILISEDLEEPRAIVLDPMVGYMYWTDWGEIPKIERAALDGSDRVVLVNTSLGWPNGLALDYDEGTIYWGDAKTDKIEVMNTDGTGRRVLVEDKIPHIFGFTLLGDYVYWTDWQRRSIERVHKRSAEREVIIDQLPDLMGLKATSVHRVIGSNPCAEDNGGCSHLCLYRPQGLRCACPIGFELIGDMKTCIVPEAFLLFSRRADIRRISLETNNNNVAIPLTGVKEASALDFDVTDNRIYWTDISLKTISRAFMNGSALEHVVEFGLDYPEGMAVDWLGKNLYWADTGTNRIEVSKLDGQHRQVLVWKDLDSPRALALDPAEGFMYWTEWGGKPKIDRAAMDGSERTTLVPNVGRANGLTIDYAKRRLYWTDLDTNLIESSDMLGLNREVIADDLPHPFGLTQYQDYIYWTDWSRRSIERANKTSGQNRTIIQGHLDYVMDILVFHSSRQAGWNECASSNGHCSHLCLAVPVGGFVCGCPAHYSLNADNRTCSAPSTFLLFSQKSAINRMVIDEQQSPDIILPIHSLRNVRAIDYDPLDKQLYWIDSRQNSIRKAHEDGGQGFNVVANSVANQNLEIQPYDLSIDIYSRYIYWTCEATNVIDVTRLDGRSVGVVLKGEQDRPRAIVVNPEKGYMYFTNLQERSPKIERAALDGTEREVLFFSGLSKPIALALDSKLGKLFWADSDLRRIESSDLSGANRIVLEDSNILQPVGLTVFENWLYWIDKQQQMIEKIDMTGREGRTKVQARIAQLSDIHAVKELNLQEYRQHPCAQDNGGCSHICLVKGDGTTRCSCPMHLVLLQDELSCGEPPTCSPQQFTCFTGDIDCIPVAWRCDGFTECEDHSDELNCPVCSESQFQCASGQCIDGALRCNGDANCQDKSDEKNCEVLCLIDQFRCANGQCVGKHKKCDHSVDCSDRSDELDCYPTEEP

B1: AAV9-X1.1 capsid (complex, adeno-associated virus 9, UniProt Q6JC40 1-736, looked up)
chain: MAADGYLPDWLEDNLSEGIREWWALKPGAPQPKANQQHQDNARGLVLPGYKYLGPGNGLDKGEPVNAADAAALEHDKAYDQQLKAGDNPYLKYNHADAEFQERLKEDTSFGGNLGRAVFQAKKRLLEPLGLVEEAAKTAPGKKRPVEQSPQEPDSSAGIGKSGAQPAKKRLNFGQTGDTESVPDPQPIGEPPAAPSGVGSLTMASGGGAPVADNNEGADGVGSSSGNWHCDSQWLGDRVITTSTRTWALPTYNNHLYKQISNSTSGGSSNDNAYFGYSTPWGYFDFNRFHCHFSPRDWQRLINNNWGFRPKRLNFKLFNIQVKEVTDNNGVKTIANNLTSTVQVFTDSDYQLPYVLGSAHEGCLPPFPADVFMIPQYGYLTLNDGSQAVGRSSFYCLEYFPSQMLRTGNNFQFSYEFENVPFHSSYAHSQSLDRLMNPLIDQYLYYLSKTIDGAATKNQTLKFSVAGPSNMAVQGRNYIPGPSYRQQRVSTTVTQNNNSEFAWPGASSWALNGRNSLMNPGPAMASHKEGEDRFFPLSGSLIFGKQGTGRDNVDADKVMITNEEEIKTTNPVATESYGQVATNHQSAQGNNTRSVAQAQTGWVQNQGILPGMVWQDRDVYLQGPIWAKIPHTDGNFHPSPLMGGFGMKHPPPQILIKNTPVPADPPTAFNKDKLNSFITQYSTGQVSVEIEWELQKENSKRWNPEIQYTSNYYKSNNVEFAVNTEGVYSEPRPIGTRYLTRNL
notes: AAV9 capsid protein VP1 with changes in VR-IV and VR-VIII; numbers count on VP1; also called AAV-X1.1; source: HEK293 cells, triple transfected, purified (iodixanol gradient); copies: 60
B2: AAV.CAP-Mac capsid (complex, adeno-associated virus 9, UniProt Q6JC40 1-736, looked up)
chain: MAADGYLPDWLEDNLSEGIREWWALKPGAPQPKANQQHQDNARGLVLPGYKYLGPGNGLDKGEPVNAADAAALEHDKAYDQQLKAGDNPYLKYNHADAEFQERLKEDTSFGGNLGRAVFQAKKRLLEPLGLVEEAAKTAPGKKRPVEQSPQEPDSSAGIGKSGAQPAKKRLNFGQTGDTESVPDPQPIGEPPAAPSGVGSLTMASGGGAPVADNNEGADGVGSSSGNWHCDSQWLGDRVITTSTRTWALPTYNNHLYKQISNSTSGGSSNDNAYFGYSTPWGYFDFNRFHCHFSPRDWQRLINNNWGFRPKRLNFKLFNIQVKEVTDNNGVKTIANNLTSTVQVFTDSDYQLPYVLGSAHEGCLPPFPADVFMIPQYGYLTLNDGSQAVGRSSFYCLEYFPSQMLRTGNNFQFSYEFENVPFHSSYAHSQSLDRLMNPLIDQYLYYLSKTINGSGQNQQTLKFSVAGPSNMAVQGRNYIPGPSYRQQRVSTTVTQNNNSEFAWPGASSWALNGRNSLMNPGPAMASHKEGEDRFFPLSGSLIFGKQGTGRDNVDADKVMITNEEEIKTTNPVATESYGQVATNHQSAQLNTTKPIAQAQTGWVQNQGILPGMVWQDRDVYLQGPIWAKIPHTDGNFHPSPLMGGFGMKHPPPQILIKNTPVPADPPTAFNKDKLNSFITQYSTGQVSVEIEWELQKENSKRWNPEIQYTSNYYKSNNVEFAVNTEGVYSEPRPIGTRYLTRNL
notes: AAV9 capsid protein VP1 with an insertion in VR-VIII; numbers count on VP1; source: HEK293 cells, triple transfected, purified (iodixanol gradient); copies: 60
B3: mouse LRP6-E1E2 (N-half of the extracellular domain, AA 20-628) tagged with mouse IgG2a Fc (Fc fusion, UniProt O88572 20-628, looked up)
chain: APLLLYANRRDLRLVDATNGKENATIVVGGLEDAAAVDFVFGHGLIYWSDVSEEAIKRTEFNKSESVQNVVVSGLLSPDGLACDWLGEKLYWTDSETNRIEVSNLDGSLRKVLFWQELDQPRAIALDPSSGFMYWTDWGEVPKIERAGMDGSSRFVIINTEIYWPNGLTLDYQERKLYWADAKLNFIHKSNLDGTNRQAVVKGSLPHPFALTLFEDTLYWTDWNTHSILACNKYTGEGLREIHSNIFSPMDIHAFSQQRQPNATNPCGIDNGGCSHLCLMSPVKPFYQCACPTGVKLMENGKTCKDGATELLLLARRTDLRRISLDTPDFTDIVLQLEDIRHAIAIDYDPVEGYIYWTDDEVRAIRRSFIDGSGSQFVVTAQIAHPDGIAVDWVARNLYWTDTGTDRIEVTRLNGTMRKILISEDLEEPRAIVLDPMVGYMYWTDWGEIPKIERAALDGSDRVVLVNTSLGWPNGLALDYDEGTIYWGDAKTDKIEVMNTDGTGRRVLVEDKIPHIFGFTLLGDYVYWTDWQRRSIERVHKRSAEREVIIDQLPDLMGLKATSVHRVIGSNPCAEDNGGCSHLCLYRPQGLRCACPIGFELIGDMKTCI
notes: mouse LRP6, YWTD domains 1 and 2 (E1E2), AA 20-628; source: bought: Bio-Techne

What was measured:
Details in all cases: both partners purified
[1] = molecular target: T1, human LRP6 (AA 20-1368) tagged with …; test: SPR; Sierra SPR-32, protein A sensor chip; human LRP6-Fc captured at 1200-1500 RU in HBS-EP+ (Fig. 4b); AAV injected at 10 µL per min for 240 s, 600 s dissociation; AAV from 2.4 × 10^12 v.g. per mL in twofold dilutions; apparent affinity, avid format
[2] = molecular target: T2, mouse LRP6 (AA 20-1366) with a 6xHis tag; test: pull-down; prey AAVs mixed with His-tagged bait protein and Ni-NTA resin in DPBS with 20 mM imidazole, 1 h at 4 °C; eluate analysed by Western blot with anti-VP1/VP2/VP3 and anti-6xHis
AAV9-X1.1 capsid = molecular target: B1; test: SPR; Sierra SPR-32, protein A sensor chip; Fc-fusion protein captured at 600-800 RU in HBS-EP+; AAV injected at 10 µL per min for 240 s, 600 s dissociation; AAV from 2.4 × 10^12 v.g. per mL in twofold dilutions; avid format
AAV-BI30 capsid = molecular target: T3, AAV-BI30 capsid (adeno-associated virus 9, UniProt Q6JC40 1-736, VR VIII AA587-590 AQ - - - - - - - AQ to AQNNSTRGGAQ); test: as above
T3 construct: AAV9 capsid protein VP1 with an insertion in VR-VIII; numbers count on VP1; source: HEK293 cells, triple transfected, purified (iodixanol gradient); copies: 60

AAV.CAP-Mac capsid = molecular target: B2; test: as above

Binder | binding result [1] | binding result [2] | binding result (AAV9-X1.1 capsid) | binding result (AAV-BI30 capsid) | binding result (AAV.CAP-Mac capsid)
B1 | binds | binds |  |  | 
B2 | binds | binds |  |  | 
B3 |  |  | binds | binds | binds
